Assay results as given in the Human Domainome abundance scans (Beltran et al. 2025).

B1: Zinc finger protein ZIC 2, residues 250 to 295; numbered along this chain, O95409 (parent)
chain: QCIKQELICKWIDPEQLSNPKKSCNKTFSTMHELVTHVSVEHVGGP

Variants of: B1
Assay: abundance fitness (aPCA) (normalised: wild type 0, dead -1); higher = more abundant; growth selection in yeast, the domain comes from the species named
Conditions: Homo sapiens

Abundance fitness of substitutions, site by site:
N25: K 0.044; M -0.019; I -0.469; Y -0.33; L 0.083; G 0.3; V -0.302; H 0.183; R 0.281; Q 0.17; W -0.453; P 0.199; F -0.517; D -0.047; T 0.072; A 0.507
V38: A -0.161; D -0.159; E 0.518; K 0.623; F 0.08; M 0.278; I -0.021; L -0.165; G -0.095; C -0.066; N 0.035; H -0.121
V35: S 0.5; W 0.2; E 0.529; P -0.848; I 0.03; G 0.118; T 0.302; Y 0.296; M 0.245; K 0.446; F 0.054; N 0.761; A -0.04; Q 0.543; R 0.193
T27: R -0.025; V 0.06; G 0.104; E 0.188; Q 0.119; N 0.001; D 0.072; H -0.449; L -0.19; I 0.381; A -0.116; S -0.001; M 0.182; C -0.17; F 0.174; W -0.296; Y -0.818
C24: V -0.86; F -1.05; S -0.766; I -1.12; K -0.979; G -0.61; R -0.841; N -0.798; M -0.906; Q -0.764; W -0.868; L -0.901; A -0.836; P -0.889; H -0.698; Y -0.994; T -0.8; E -0.488
L34: D -0.828; G -0.618; A -0.641; T -0.696; R -0.705; I -0.79; N -0.733; V -0.615; S -0.617; H -0.569; F -0.039; M 0.087; Y 0.544; Q -0.48; P -0.371; E -0.717; C -0.797; W -0.029; K -0.23
H37: M -0.728; N -0.747; C -1.5; D -0.457; A -0.683; W -0.953; Y -0.951; K -0.806; T -0.903; R -0.789; F -1.1; V -0.904; G -0.565; S -0.856; I -1; P -0.787; L -0.741; Q -0.93; E -0.611
N19: S -0.079; V 0.007; I 0.164; P -0.104; H 0.056; F -0.166; W -0.74; T 0.118; Y -0.451; M -0.067; C -0.957; L -0.17; A -0.131; Q 0.132; R -0.053; K -0.012; D -0.092; E -0.006
M31: K 0.518; C -0.569; N 0.622; I 0.318; E 0.373; L -0.377; P -0.079; A 0.12; G 0.079; H 0.436; S 0.321; W -0.602; V -0.363; D 0.334; Q 0.438; T 0.042
S18: Q -0.36; T 0.118; V -0.485; N 0.286; P -0.171; Y -0.317; W -0.265; R -0.198
T30: H -0.596; C -0.999; Q -0.159; V -0.429; F -0.254; W -0.661; M -0.765; L -0.802; N 0.317; A 0.122; D -0.072; Y -0.96; P -0.923; G -0.178; E -0.316; R -0.418; K -0.389; S -0.273; I -0.315
P20: H -0.883; A -0.235; Y -0.621; Q -0.264; R -0.416; I -0.498; E -0.046; M -0.076; V -0.111; K -0.233; W -0.521; D 0.057; T -0.554; N -0.121; C -0.832; L -0.184; F -0.356
F28: W -0.968; A -0.811; D -0.914; E -0.547; T -0.631; K -0.471; Y -0.724; V -0.724; C -0.725; M -0.683; G -0.598; L -0.668; H -1.04; R -0.84; S -0.887; Q -0.705
T36: Y -0.25; D -0.068; Q 0.055; N -0.232; A -0.178; L -0.453; G -0.032; S 0.018; H -0.283; F -0.483; M -0.341; W -0.081; K 0.141; E -0.025; C -0.236; V -0.38
S23: Q 0.226; F 0.14; K 0.309; T 0.193; H 0.156; M 0.246; C 0.029; E 0.002; D -0.287; G 0.111; V 0.107; L 0.282; I 0.095; W -0.01; P 0.043; R 0.566; Y 0.079; A 0.316
K22: Q -0.166; R 0.124; G -0.126; V 0.037; Y -0.376; M -0.126; N 0.224; P -0.095; E -0.285; F -0.332; T -0.015; W -0.404; D -0.035; L -0.089; A -0.175; C -0.349; H -0.006; S -0.102
E33: L -0.735; V -0.838; A -0.342; S -0.452; K -0.615; G -0.166; M -0.751; N -0.726; F -1.03; I -0.932; P -0.826; R -0.69; Q -0.046; C -0.777; D 0.086; Y -1.01; H -0.434; W -0.979
K21: N 0.314; P 0.028; Q 0.126; Y -0.095; A -0.008; S -0.178; T -0.168; E 0.078; I -0.153; V -0.116; M -0.203; L -0.091; G -0.12; H 0.016; R -0.302; C -0.673; W -0.102; F 0.01
S29: G 0.03; C -0.337; I -0.356; P 0.209; D 0.352; F -0.215; W -0.386; Q 0.114; R 0.236; H 0.077; T 0.551; N -0.213; V -0.167; K 0.03; L 0.07; M -0.077; E 0.425; A -0.086
H32: T 0.037; K -0.011; R 0.084; I -0.211; G -0.044; Y -0.573; N 0.275; L -0.471; D 0.092; V -0.196; P 0.171; A 0.14; E 0.082; M -0.263; W 0.163; F 0.012; C -0.172; S 0.011
